Reference: US7777010 (CRUCELL HOLLAND B V, dated 2010)

T1: purified recombinant Ep-CAM produced in insect cells (UniProt P16422 24-265, limits assumed)
T1 construct: Coupled to a CM5 sensor chip by NHS/EDC; Neither the species nor the construct limits are stated at this place
T1 sequence (looked up): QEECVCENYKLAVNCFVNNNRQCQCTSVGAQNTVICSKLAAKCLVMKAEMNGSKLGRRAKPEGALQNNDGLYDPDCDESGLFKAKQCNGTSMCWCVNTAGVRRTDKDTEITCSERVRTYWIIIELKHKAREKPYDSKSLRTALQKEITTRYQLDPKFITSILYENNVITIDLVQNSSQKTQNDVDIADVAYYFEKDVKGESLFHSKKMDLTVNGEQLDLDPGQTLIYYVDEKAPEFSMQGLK


Assays:
[1] = target: T1, purified recombinant Ep-CAM produced in …; experiment: SPR (BIAcore), recombinant Ep-CAM coupled to CM5 chip, IgG1 in flow
Description: (§1) In separate BIAcore flow cells, approximately 160, 1565 and 4154 resonance units of purified recombinant Ep-CAM produced in insect cells (kindly provided by Dr. D. Herlyn, Wistar institute, Philadelphia, Pa.) (25 µg/ml) in 10 mM acetate buffer (pH 4.0) were coupled to a CM5 sensor chip using NHS/EDC coupling chemistry. Association and dissociation were measured under continuous flow of […] using a concentration range from 100 to 1 nM.
(§2) The kinetic association and dissociation rates of the original huMab UBS-54 and the mutant huMabs A37 and C52 were determined by surface plasmon resonance (Table 1). […] The improvement was mainly the result of a lower […].

[2] = target: T1, purified recombinant Ep-CAM produced in …; experiment: SPR (BIAcore), recombinant Ep-CAM coupled to CM5 chip
Description: as §1, §2

Row | Binder | Kd [1] [nM] | koff [1] [s⁻¹] | kon [1] [M⁻¹ s⁻¹] | fold increase in affinity against the original huMab UBS-54 [2] [fold] | fold improvement of binding affinity against the original UBS-54 huMab [2] [fold]
1 | huMab UBS-54 (antibody, V domains shown, Tested as an intact human IgG1/kappa huMab made in BHK cells (VH1 / Vk2 V regions); FITC-labelled in the spheroid experiment; also called original huMab UBS-54; original UBS-54) VH: QVQLVQSGAEVKKPGSSVRVSCKASGGTFSSYAISWVRQAPGQGLEWMGGIIPIFGTANYAQKFQGRVTITADESTSTAYMELSSLRSEDTAVYYCARDPFLHYWGQGTLVT VL: not shown | 6 | 0.0006 | 100000 | – | –
2 | huMab A37 (antibody, V domains shown, Tested as an intact human IgG1/kappa huMab made in BHK cells; It has the UBS-54 VH with a shuffled Vk3 light chain; also called mutant A37) VH: QVQLVQSGAEVKKPGSSVRVSCKASGGTFSSYAISWVRQAPGQGLEWMGGIIPIFGTANYAQKFQGRVTITADESTSTAYMELSSLRSEDTAVYYCARDPFLHYWGQGTLVT VL: EIELTQSPGTLSLSPGERATLSCRASQTISNNYLAWYQQKRGQAPRLLIYAASSRATGIPDRFSGTGSGTDFTLTISRLEPEDFAVYYCAQGELYPRQFGGGTKLEI | 1.6 | 0.00041 | 250000 | ~4 | –
3 | huMab C52 (antibody, V domains shown, Tested as an intact human IgG1/kappa huMab made in BHK cells; It has the B43 VH with a DNA-shuffled A37-derived Vk light chain; FITC-labelled in the spheroid experiment; also called mutant C52) VH: QVQLVQSGAEVKKPGASVKVSCKASGGTFSSYAISWVRQAPGQGLEWMGGIVPIFGTANYAQKFQGRVTITADESTSTAYMELSSLRSEDTAVYYCARDPFLHYWGQGTLVT VL: EIELTQSPGTLSLSPGERATLSCRASQSVSSSYLAWYQQKPGQAPRLLIYGASSRATGIPDRFSGSGSGTDFTLTISRLEPEDFAVYYCAQGELYPRQFGGGTKLDI | 0.4 | 0.00011 | 270000 | – | 15
